Blank lines part the entries; values can stand above or below the binder they belong to. *1 amine or outer side, *2 acyl side, *3 side chain or, on linkers, in order; H or OH if unused. Side-chain parts run from the residue outwards. The star is where a group is joined. C18 diacid = O=C(O)CCCCCCCCCCCCCCCCC(=O)*; γGlu = O=C(O)[C@H](CCC(=O)[*:2])N[*:1]; Isovaleryl = CC(C)CC(=O)*; AEEA = NCCOCCOCC(=O)O
Biological target: T1, human neuropeptide Y2 receptor (human, UniProt P49146 1-381)
T1 construct: whole, on cells; also called hNPY2 receptor; hNPY2-R
T1 sequence (looked up): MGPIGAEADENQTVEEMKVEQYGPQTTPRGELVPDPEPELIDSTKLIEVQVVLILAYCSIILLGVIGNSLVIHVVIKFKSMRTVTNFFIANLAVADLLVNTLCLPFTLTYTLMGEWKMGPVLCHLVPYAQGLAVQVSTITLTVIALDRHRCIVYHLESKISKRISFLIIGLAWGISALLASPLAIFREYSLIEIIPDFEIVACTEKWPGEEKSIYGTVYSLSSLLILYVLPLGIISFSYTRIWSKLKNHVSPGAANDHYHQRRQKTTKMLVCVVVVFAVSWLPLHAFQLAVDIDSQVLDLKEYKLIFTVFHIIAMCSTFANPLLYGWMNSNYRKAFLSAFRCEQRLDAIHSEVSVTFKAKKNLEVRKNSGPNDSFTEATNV
Experiment: radioligand competition (125I-PYY(1-36)), hNPY2R membranes
Summary of the method: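 Commercial human Y2 receptor membranes (0.5 μg protein/well) were incubated with peptide for 2 h at room temperature in 50 mM HEPES, 5 mM MgCl₂, 1 mM CaCl₂, pH 7.4, with 0.2% ovalbumin. Bound radioligand was separated on PEI-soaked GF/C filters and counted by scintillation, and IC₅₀ came from nonlinear sigmoidal regression.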

Ki: 0.4 nM
B1: Compound 43 (peptide)
peptide: Isovaleryl-APEK([AEEA-AEEA-γGlu-C18 diacid])PEAPASPEELQRYYVSLRHYYNWLTRQRY-NH2
SMILES: CC(C)CC(=O)N[C@@H](C)C(=O)N1CCC[C@H]1C(=O)N[C@@H](CCC(=O)O)C(=O)N[C@@H](CCCCNC(=O)COCCOCCNC(=O)COCCOCCNC(=O)CC[C@H](NC(=O)CCCCCCCCCCCCCCCCC(=O)O)C(=O)O)C(=O)N1CCC[C@H]1C(=O)N[C@@H](CCC(=O)O)C(=O)N[C@@H](C)C(=O)N1CCC[C@H]1C(=O)N[C@@H](C)C(=O)N[C@@H](CO)C(=O)N1CCC[C@H]1C(=O)N[C@@H](CCC(=O)O)C(=O)N[C@@H](CCC(=O)O)C(=O)N[C@@H](CC(C)C)C(=O)N[C@@H](CCC(N)=O)C(=O)N[C@@H](CCCNC(=N)N)C(=O)N[C@@H](Cc1ccc(O)cc1)C(=O)N[C@@H](Cc1ccc(O)cc1)C(=O)N[C@H](C(=O)N[C@@H](CO)C(=O)N[C@@H](CC(C)C)C(=O)N[C@@H](CCCNC(=N)N)C(=O)N[C@@H](Cc1c[nH]cn1)C(=O)N[C@@H](Cc1ccc(O)cc1)C(=O)N[C@@H](Cc1ccc(O)cc1)C(=O)N[C@@H](CC(N)=O)C(=O)N[C@@H](Cc1c[nH]c2ccccc12)C(=O)N[C@@H](CC(C)C)C(=O)N[C@H](C(=O)N[C@@H](CCCNC(=N)N)C(=O)N[C@@H](CCC(N)=O)C(=O)N[C@@H](CCCNC(=N)N)C(=O)N[C@@H](Cc1ccc(O)cc1)C(N)=O)[C@@H](C)O)C(C)C

Ki: 4.44 nM
B2: Compound 44 (peptide)
peptide: Isovaleryl-APEK([AEEA-AEEA-γGlu-C18 diacid])PEEEASPEELQRYYVSLRHYYNWITRQRY-NH2
SMILES: CC[C@H](C)[C@H](NC(=O)[C@H](Cc1c[nH]c2ccccc12)NC(=O)[C@H](CC(N)=O)NC(=O)[C@H](Cc1ccc(O)cc1)NC(=O)[C@H](Cc1ccc(O)cc1)NC(=O)[C@H](Cc1c[nH]cn1)NC(=O)[C@H](CCCNC(=N)N)NC(=O)[C@H](CC(C)C)NC(=O)[C@H](CO)NC(=O)[C@@H](NC(=O)[C@H](Cc1ccc(O)cc1)NC(=O)[C@H](Cc1ccc(O)cc1)NC(=O)[C@H](CCCNC(=N)N)NC(=O)[C@H](CCC(N)=O)NC(=O)[C@H](CC(C)C)NC(=O)[C@H](CCC(=O)O)NC(=O)[C@H](CCC(=O)O)NC(=O)[C@@H]1CCCN1C(=O)[C@H](CO)NC(=O)[C@H](C)NC(=O)[C@H](CCC(=O)O)NC(=O)[C@H](CCC(=O)O)NC(=O)[C@H](CCC(=O)O)NC(=O)[C@@H]1CCCN1C(=O)[C@H](CCCCNC(=O)COCCOCCNC(=O)COCCOCCNC(=O)CC[C@H](NC(=O)CCCCCCCCCCCCCCCCC(=O)O)C(=O)O)NC(=O)[C@H](CCC(=O)O)NC(=O)[C@@H]1CCCN1C(=O)[C@H](C)NC(=O)CC(C)C)C(C)C)C(=O)N[C@H](C(=O)N[C@@H](CCCNC(=N)N)C(=O)N[C@@H](CCC(N)=O)C(=O)N[C@@H](CCCNC(=N)N)C(=O)N[C@@H](Cc1ccc(O)cc1)C(N)=O)[C@@H](C)O

Ki: 38.9 nM
B3: Compound 48 (peptide)
peptide: Isovaleryl-APEK([AEEA-AEEA-γGlu-C18 diacid])PEEDTEPEELQRYYVSLRHYYNWLTRQRY-NH2
SMILES: CC(C)CC(=O)N[C@@H](C)C(=O)N1CCC[C@H]1C(=O)N[C@@H](CCC(=O)O)C(=O)N[C@@H](CCCCNC(=O)COCCOCCNC(=O)COCCOCCNC(=O)CC[C@H](NC(=O)CCCCCCCCCCCCCCCCC(=O)O)C(=O)O)C(=O)N1CCC[C@H]1C(=O)N[C@@H](CCC(=O)O)C(=O)N[C@@H](CCC(=O)O)C(=O)N[C@@H](CC(=O)O)C(=O)N[C@H](C(=O)N[C@@H](CCC(=O)O)C(=O)N1CCC[C@H]1C(=O)N[C@@H](CCC(=O)O)C(=O)N[C@@H](CCC(=O)O)C(=O)N[C@@H](CC(C)C)C(=O)N[C@@H](CCC(N)=O)C(=O)N[C@@H](CCCNC(=N)N)C(=O)N[C@@H](Cc1ccc(O)cc1)C(=O)N[C@@H](Cc1ccc(O)cc1)C(=O)N[C@H](C(=O)N[C@@H](CO)C(=O)N[C@@H](CC(C)C)C(=O)N[C@@H](CCCNC(=N)N)C(=O)N[C@@H](Cc1c[nH]cn1)C(=O)N[C@@H](Cc1ccc(O)cc1)C(=O)N[C@@H](Cc1ccc(O)cc1)C(=O)N[C@@H](CC(N)=O)C(=O)N[C@@H](Cc1c[nH]c2ccccc12)C(=O)N[C@@H](CC(C)C)C(=O)N[C@H](C(=O)N[C@@H](CCCNC(=N)N)C(=O)N[C@@H](CCC(N)=O)C(=O)N[C@@H](CCCNC(=N)N)C(=O)N[C@@H](Cc1ccc(O)cc1)C(N)=O)[C@@H](C)O)C(C)C)[C@@H](C)O

Ki: 3.97 nM
B4: Compound 45 (peptide)
peptide: Isovaleryl-APEK([AEEA-AEEA-γGlu-C18 diacid])PEEEASPESLQRYYVSLRHYYNWLTRQRY-NH2
SMILES: CC(C)CC(=O)N[C@@H](C)C(=O)N1CCC[C@H]1C(=O)N[C@@H](CCC(=O)O)C(=O)N[C@@H](CCCCNC(=O)COCCOCCNC(=O)COCCOCCNC(=O)CC[C@H](NC(=O)CCCCCCCCCCCCCCCCC(=O)O)C(=O)O)C(=O)N1CCC[C@H]1C(=O)N[C@@H](CCC(=O)O)C(=O)N[C@@H](CCC(=O)O)C(=O)N[C@@H](CCC(=O)O)C(=O)N[C@@H](C)C(=O)N[C@@H](CO)C(=O)N1CCC[C@H]1C(=O)N[C@@H](CCC(=O)O)C(=O)N[C@@H](CO)C(=O)N[C@@H](CC(C)C)C(=O)N[C@@H](CCC(N)=O)C(=O)N[C@@H](CCCNC(=N)N)C(=O)N[C@@H](Cc1ccc(O)cc1)C(=O)N[C@@H](Cc1ccc(O)cc1)C(=O)N[C@H](C(=O)N[C@@H](CO)C(=O)N[C@@H](CC(C)C)C(=O)N[C@@H](CCCNC(=N)N)C(=O)N[C@@H](Cc1c[nH]cn1)C(=O)N[C@@H](Cc1ccc(O)cc1)C(=O)N[C@@H](Cc1ccc(O)cc1)C(=O)N[C@@H](CC(N)=O)C(=O)N[C@@H](Cc1c[nH]c2ccccc12)C(=O)N[C@@H](CC(C)C)C(=O)N[C@H](C(=O)N[C@@H](CCCNC(=N)N)C(=O)N[C@@H](CCC(N)=O)C(=O)N[C@@H](CCCNC(=N)N)C(=O)N[C@@H](Cc1ccc(O)cc1)C(N)=O)[C@@H](C)O)C(C)C

Ki: 0.42 nM
B5: Compound 47 (peptide)
peptide: Isovaleryl-APEK([AEEA-AEEA-γGlu-C18 diacid])PPADASPEELQRYYVSLRHYYNWLTRQRY-NH2
SMILES: CC(C)CC(=O)N[C@@H](C)C(=O)N1CCC[C@H]1C(=O)N[C@@H](CCC(=O)O)C(=O)N[C@@H](CCCCNC(=O)COCCOCCNC(=O)COCCOCCNC(=O)CC[C@H](NC(=O)CCCCCCCCCCCCCCCCC(=O)O)C(=O)O)C(=O)N1CCC[C@H]1C(=O)N1CCC[C@H]1C(=O)N[C@@H](C)C(=O)N[C@@H](CC(=O)O)C(=O)N[C@@H](C)C(=O)N[C@@H](CO)C(=O)N1CCC[C@H]1C(=O)N[C@@H](CCC(=O)O)C(=O)N[C@@H](CCC(=O)O)C(=O)N[C@@H](CC(C)C)C(=O)N[C@@H](CCC(N)=O)C(=O)N[C@@H](CCCNC(=N)N)C(=O)N[C@@H](Cc1ccc(O)cc1)C(=O)N[C@@H](Cc1ccc(O)cc1)C(=O)N[C@H](C(=O)N[C@@H](CO)C(=O)N[C@@H](CC(C)C)C(=O)N[C@@H](CCCNC(=N)N)C(=O)N[C@@H](Cc1c[nH]cn1)C(=O)N[C@@H](Cc1ccc(O)cc1)C(=O)N[C@@H](Cc1ccc(O)cc1)C(=O)N[C@@H](CC(N)=O)C(=O)N[C@@H](Cc1c[nH]c2ccccc12)C(=O)N[C@@H](CC(C)C)C(=O)N[C@H](C(=O)N[C@@H](CCCNC(=N)N)C(=O)N[C@@H](CCC(N)=O)C(=O)N[C@@H](CCCNC(=N)N)C(=O)N[C@@H](Cc1ccc(O)cc1)C(N)=O)[C@@H](C)O)C(C)C

Ki: 0.89 nM
B6: Compound 49 (peptide)
peptide: Isovaleryl-APEK([AEEA-AEEA-γGlu-C18 diacid])PEEDASPEELQQYYVELRHYYNWLTRQRY-NH2
SMILES: CC(C)CC(=O)N[C@@H](C)C(=O)N1CCC[C@H]1C(=O)N[C@@H](CCC(=O)O)C(=O)N[C@@H](CCCCNC(=O)COCCOCCNC(=O)COCCOCCNC(=O)CC[C@H](NC(=O)CCCCCCCCCCCCCCCCC(=O)O)C(=O)O)C(=O)N1CCC[C@H]1C(=O)N[C@@H](CCC(=O)O)C(=O)N[C@@H](CCC(=O)O)C(=O)N[C@@H](CC(=O)O)C(=O)N[C@@H](C)C(=O)N[C@@H](CO)C(=O)N1CCC[C@H]1C(=O)N[C@@H](CCC(=O)O)C(=O)N[C@@H](CCC(=O)O)C(=O)N[C@@H](CC(C)C)C(=O)N[C@@H](CCC(N)=O)C(=O)N[C@@H](CCC(N)=O)C(=O)N[C@@H](Cc1ccc(O)cc1)C(=O)N[C@@H](Cc1ccc(O)cc1)C(=O)N[C@H](C(=O)N[C@@H](CCC(=O)O)C(=O)N[C@@H](CC(C)C)C(=O)N[C@@H](CCCNC(=N)N)C(=O)N[C@@H](Cc1c[nH]cn1)C(=O)N[C@@H](Cc1ccc(O)cc1)C(=O)N[C@@H](Cc1ccc(O)cc1)C(=O)N[C@@H](CC(N)=O)C(=O)N[C@@H](Cc1c[nH]c2ccccc12)C(=O)N[C@@H](CC(C)C)C(=O)N[C@H](C(=O)N[C@@H](CCCNC(=N)N)C(=O)N[C@@H](CCC(N)=O)C(=O)N[C@@H](CCCNC(=N)N)C(=O)N[C@@H](Cc1ccc(O)cc1)C(N)=O)[C@@H](C)O)C(C)C

From patent US20210139548A1 (published 2021)
